In patent US20210403538A1:

What was measured:
[1] = molecular target: MARV GP [change] (Lake Victoria marburgvirus) (UniProt Q1PD50)
[2] = molecular target: SUDV GP [change] (Sudan ebolavirus) (UniProt Q7T9D9)
[3] = molecular target: BDBV GP [change] (Bundibugyo ebolavirus (BDBV), strain 200706291 Uganda); assay: ELISA, coated recombinant GP ΔTM
[4] = molecular target: EBOV GP [change] (Zaire ebolavirus (EBOV), strain Makona); assay: ELISA, coated recombinant GP ΔTM

Binder	EC50 [1]	EC50 [2]	EC50 [3]	EC50 [4]
EBOV-434 (antibody, V domains shown) VH: QVQLVQSGAEVKKPGASVKVSCKASGYTFTGYYMFWVRQAPGQGLEWMGWINPNSGGTNYTQKFQGRVTMTRDTSISTAYMELSRLKSDDTAVYYCARDSGELLFVGSDVWGQGTLVTVSS VL: DIQMTQSPSSVSASVGDRVTITCRASLDISYWLAWYQQKPGKAPKLLIYAASNLQSGVPSRFSGSGSGTDFTLTISSLQPEDFATYYCQQANSFPQTFGQGTRLELK	> 10 µg/mL	1.11 µg/mL	0.415 µg/mL	0.304 µg/mL
EBOV-442 (antibody, V domains shown) VH: EVQLVESGGGLVKPGGSLRLSCTGSGGTGFTFKYAGMSWVRQAPGKGPEWIGRIKSRIDGGTTDYAAPVKDRFIVSRDDSRNTLYLQMNSLKTEDTAVYYCATGSGKGPSASFGESYYYYDFINVWGKGTTVTVSS VL: ESVLTQSPGTLSLSPGERATLSCRASQSISRKYLAWYQQKPGQAPRLLIYGSSSRATGIPDRFSGSGSGTDFTLTISRLEPEDFAVYYCHQYESSPWTFGQGTKVEIK	> 10 µg/mL	0.006 µg/mL	0.003 µg/mL	0.001 µg/mL
EBOV-446 (antibody, V domains shown) VH: QVQLVQSGAEVKKPGASVKVSCKASGYTFTDYYIYWVRQAPGQGLEWMGWLNPNSGGTDYAQKFQGRVTMTRDTSIRTAYMDLSRLRSDDTAVYYCARGRRHGAYVDWGQGTLVTVSS VL: DIQLTQSPSFLSASVGDRVTITCRASQGISTYLAWYQQKPGKAPNLLIYDTSTLQSGVPSRFSGSASGTEFTLTISSLQPEDFATYYCQQLNFYLGGLTFGQGTRLEIK	> 10 µg/mL	0.722 µg/mL	0.002 µg/mL	0.009 µg/mL
EBOV-451 (antibody, V domains shown) VH: EVQLVESGGSVVRPGGSLRLSCAASGFKFDEYGMSWVRQAPGKGLEWVSGITWNGGVRTYADSVKGRFTISRDNAKNSVYLQMKSLRGEDTALYYCVSWGERYDAYFDYWGQGTLVTVSS VL: EIVLTQSPGSLSLSPGERATLSCRASQSVNSRYFAWYQQRPGQAPRLLIYATSTRATGIPDRFSGSGSGTDFTLTISRLEPEDFAVYSCQQYGSSPYTFGQGTKLEIK	> 10 µg/mL	0.003 µg/mL	0.007 µg/mL	0.001 µg/mL
EBOV-507 (antibody, V domains shown) VH: QVQLVQSGAEVKKPGASVKVSCKASGYTFNNYLINWVRQAPGQGLEWMGWINPHSGGTEYAQQFQGRLTVTRDTSIRTAYMELRGLTFDDSAMYYCWIWFRSETFDFWGQGTLVTVSS VL: DIQMTQSPSAMSASVGDRVTITCRASQDISNYLAWFQQKPGQGPKRLIFEASILHSGVPSRFSGSGSGTEFTLTISSLQPEDFATYYCLQHNTYLTFGQGTKVEIK	> 10 µg/mL	0.002 µg/mL	0.004 µg/mL	0.001 µg/mL
EBOV-508 (antibody, V domains shown) VH: QVQLVQSGAEVKKPGASVKVSCKASGYTFINYYMHWVRQAPGQGLEWMGTINPSTGRPNYAQKFQGRVTLTRDTSTTTVDMELSSLTSEDTAVYYCVSFQFYFDYWGQGTLVTVSS VL: DIQMTQSPSAMSPSVGDRVTITCRASQGINNYLAWFQQKPGKVPKRLIYAASNLQSGVPSRFSGSGSGTEFTLTISSLQPEDFATYYCLQHNSYPWTFGQGTKVEIN	> 10 µg/mL	0.003 µg/mL	0.005 µg/mL	0.002 µg/mL
EBOV-510 (antibody, V domains shown) VH: QVQLQESGPGLVKPSQTLSLTCTVSGGSITSGDYYLTWVRQPPGKGLEWIGHIYYSGSTSYNPSLKSRLLMSVDTSKNQFSLRLSSVTAADTAVYYCARESDGDPSRLYFYFAMDVWGQGTLVTVSS VL: QSALTQPASVSGSPGQSITISCTGTSSDVGGSYFVSWYQHHPGKAPKLMISEVSNRPSGVSNRFSGSKSGNTASLTISGLRTEDEADYYCSSYTSNTTLVFGGETKVTVL	> 10 µg/mL	3.09 µg/mL	0.261 µg/mL	0.143 µg/mL
EBOV-511 (antibody, V domains shown) VH: QLQLQESGPGLVKPSETLSLSCTVSGDSISANNYFWGWIRQPPGKELEWIGSIHNSGSTYYNPSLKSRVTTSVDTSRTQFSLKLHSVTAADAAIYYCARHLAPISGVIFIPSFFDSWGQGTLVTVSS VL: EIVMTQSPATLSVSPGERATLSCRASQSVSSNLAWYQQRPGQAPRLLIFDASTRATGVPARFSGSGSGTEFTLTISSLQSEDFALYYCQQYNDWPPRLTFGGGTKVEIK	> 10 µg/mL	0.387 µg/mL	0.289 µg/mL	0.094 µg/mL
EBOV-514 (antibody, V domains shown) VH: QVQLQESGPGLVKPSQTLSLTCTVSGASITGGDDFWSWIRQPPGKGLEWIGFIHHSGNAYYRSSLKSRVHFSVDTSKDQFSLTLTSVTAADTAVYYCARDKAQAYGLLYHYHTDVWGKGTLVTVSS VL: EIVMTQSPATLSVSPGERATLSCRASQSVSSNLAWYQQKPGLAPRLLIYGAFTRATDIPDRFSGSGSGTEFTLTISSLQSEDFAIYYCQYYNDWPPGYTFGQGTKLEIK	> 10 µg/mL	0.015 µg/mL	0.01 µg/mL	0.007 µg/mL
EBOV-517 (antibody, V domains shown) VH: EVQLVESGGGLVQPGGSLRLSCGASGFTFNKYWMTWVRQAPGKGLEWVANINQDGSEKYFAESVKGRFTVSRDNAKNSLYLQMNSLRAEDTAVYYCARGASIEVEILYYYHMDVWGKGTLVTVSS VL: EIVMTQSPATLSVSPGERATLSCRASQSITTHLAWYQQKPGQAPRLLIYDTSTRATGIPARFSGSGSGTEFTLTISNMQSEDFAVYYCQQYHTWPPLTFGGGTKVEIK	> 10 µg/mL	1.69 µg/mL	0.865 µg/mL	0.042 µg/mL
EBOV-518 (antibody, V domains shown) VH: QVTLKESGPTLVKPTQTLTLTCTFSGFSMNSSGMSVTWIRQPPGKALECLALIYWDDDKWYGPSLETRVTITKDASKNQVVLTMTNMDPVDTATYYCAHSGGLVAGAFDYWGQGTLVTVSS VL: EIVMTQSPDSLTVSLGERATINCRSSQSVLYRVNSKNYLAWYQQKAGQTPKLIINWASTRESGVPDRFSGSGSGTDFTLTISSLQAEDVAVYYCQQYYNSPRTFGQGTKVEIK	0.78 µg/mL	0.352 µg/mL	2.63 µg/mL	0.283 µg/mL
EBOV-520 (antibody, V domains shown) VH: QVQLQESGPGLGKPSETLSLSCTVSGASIRGYFWNWIRQPPGKGLEWIGYIHSTGSTNYNPSLKSRVTISVDTSKNQVSLNVNSVTAADTAVYFCARGAWNVATVYYYYGMDVWGQGTLVTVSS VL: EIVLTQSPGTLSLSPGERATLSCRASQSVSSSYFAWYQQKPGQAPRLLISGTSTRAPGIPDRFSGSGSGTDFTLTISRLEPEDFAVYFCQQYGNSLYTFGQGTKLEIK	> 10 µg/mL	0.136 µg/mL	0.072 µg/mL	0.012 µg/mL
EBOV-524 (antibody, V domains shown) VH: QVQLVESGGGVVQPGGSLRLSCAASGFKFSTYGMNWVRQVPGQGLEWVSFVRHDGSNKYYSDSVKGRFTIFRDNSNNKLYLQMNNLRAEDTAVYYCAKDVLDCSRADCFIYYYYMDVWGKGTLVTVSS VL: DIQMTQSPSSVSASPGDRVTITCRASQTISGWLAWYQQKPGKAPKLLIYDVSTLQSGVPSRFSGGGSGTEFTFTISSLQPEDYATYFCQQGNRIPLSFGGGTRVEIK	> 10 µg/mL	0.701 µg/mL	0.146 µg/mL	0.123 µg/mL
